Data on 91 sequences can be found in the supplement of paper PMC9112550, “Optimization of the antimicrobial peptide Bac7 by deep mutational scanning” (BMC Biology, 2022).
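Note: peptides expressed intracellularly from a pBAD plasmid library in pooled LB shake-flask culture, induced with 0.3% L-arabinose, DNA abundance read by NGS, three biological replicates, DESeq2 with apeglm shrinkage.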

The test system of the data set is Escherichia coli TOP10. In words: shrunken log2 fold change of peptide-encoding DNA abundance (4.5 h post-induction vs induction); higher = less antimicrobial activity (less host growth inhibition). As to conditions: time post-induction: 4.5 h; library: site-saturation at positions 5, 18, 19, 20.
Consider RRIRGRPPRLPRPRPRPQGIPRP, for which the “shrunken log2 fold change” value was -0.128. With RRIRCRPPRLPRPRPRPCFAPRP, the “shrunken log2 fold change” value was -0.162.

For RRIRWRPPRLPRPRPRPTIYPRP, the “shrunken log2 fold change” value was determined as 0.113.

As to RRIRYRPPRLPRPRPRPVFGPRP, the “shrunken log2 fold change” value was -0.415. To RRIRHRPPRLPRPRPRPAIVPRP belongs -0.167; to RRIRRRPPRLPRPRPRPDFMPRP, 0.335; to RRIRRRPPRLPRPRPRPYDQPRP, -0.0875. In the case of RRIRRRPPRLPRPRPRPMMGPRP it was 0.235; in that of RRIRNRPPRLPRPRPRPCTAPRP, 0.022. In the case of RRIRHRPPRLPRPRPRPNIKPRP it was -0.69; in that of RRIRPRPPRLPRPRPRPHCKPRP, -0.633; in that of RRIRCRPPRLPRPRPRPNFIPRP, -0.616. With RRIRTRPPRLPRPRPRPAEQPRP, the “shrunken log2 fold change” value was 0.0493. In the case of RRIRARPPRLPRPRPRPCNVPRP, the “shrunken log2 fold change” value is -0.0688.

As for RRIRQRPPRLPRPRPRPPSPPRP, the “shrunken log2 fold change” value came out at 0.426. In the case of RRIRNRPPRLPRPRPRPMMGPRP it was 0.0355; in that of RRIRGRPPRLPRPRPRPNCSPRP, 0.99. For the sequence RRIRNRPPRLPRPRPRPYWVPRP, the “shrunken log2 fold change” value was -0.134. RRIRYRPPRLPRPRPRPREHPRP: the “shrunken log2 fold change” value is -0.00116. Turning to RRIRQRPPRLPRPRPRPVGAPRP, the “shrunken log2 fold change” value worked out at 0.489. Take RRIRIRPPRLPRPRPRPSRYPRP: the “shrunken log2 fold change” value is -0.759. In the case of RRIRHRPPRLPRPRPRPMPDPRP, the “shrunken log2 fold change” value was -0.276. In the case of RRIRRRPPRLPRPRPRPSKAPRP it was -0.0721; in that of RRIRIRPPRLPRPRPRPEVLPRP, -0.0175; in that of RRIRTRPPRLPRPRPRPIVEPRP, 0.0431.

Turning to RRIRYRPPRLPRPRPRPNVPPRP, the “shrunken log2 fold change” value was -3.01. As for RRIRFRPPRLPRPRPRPYCCPRP, the “shrunken log2 fold change” value is -0.324. As for RRIRPRPPRLPRPRPRPIRIPRP, the “shrunken log2 fold change” value was -0.149.

Regarding RRIRERPPRLPRPRPRPKRCPRP, the “shrunken log2 fold change” value is -0.0369.

Regarding RRIRSRPPRLPRPRPRPFNWPRP, the “shrunken log2 fold change” value is 0.0339.

In the case of RRIRVRPPRLPRPRPRPCTCPRP, the “shrunken log2 fold change” value was -0.00748. To RRIRKRPPRLPRPRPRPHIEPRP belongs -0.891; to RRIRGRPPRLPRPRPRPGVKPRP, 0.588. In the case of RRIRIRPPRLPRPRPRPRKTPRP, the “shrunken log2 fold change” value worked out at 0.13. With RRIRNRPPRLPRPRPRPICVPRP, the “shrunken log2 fold change” value came out at 0.111. To RRIRDRPPRLPRPRPRPHYWPRP belongs -0.282; to RRIRFRPPRLPRPRPRPVIIPRP, -0.415; to RRIRRRPPRLPRPRPRPGNSPRP, 0.119. In the case of RRIRTRPPRLPRPRPRPYAEPRP it was -0.612; in that of RRIRNRPPRLPRPRPRPCYVPRP, -0.0102; in that of RRIRERPPRLPRPRPRPQCEPRP, -0.0239.

As to RRIRRRPPRLPRPRPRPSDRPRP, the “shrunken log2 fold change” value was -0.153. To RRIRLRPPRLPRPRPRPYCFPRP belongs -0.909; to RRIRHRPPRLPRPRPRPQGDPRP, 0.0795; to RRIRSRPPRLPRPRPRPFNLPRP, -0.218.

RRIRQRPPRLPRPRPRPRRGPRP: the “shrunken log2 fold change” value amounted to 0.502. To RRIRHRPPRLPRPRPRPGFEPRP belongs 0.373. Consider RRIRFRPPRLPRPRPRPHRIPRP, for which the “shrunken log2 fold change” value is -0.526. In the case of RRIRDRPPRLPRPRPRPDPVPRP it was 0.203. To RRIRIRPPRLPRPRPRPHAFPRP belongs -0.0152. To RRIRKRPPRLPRPRPRPSGVPRP belongs 0.005; to RRIRQRPPRLPRPRPRPHTNPRP, -0.814. As for RRIRWRPPRLPRPRPRPVDCPRP, the “shrunken log2 fold change” value came to 0.00927. In the case of RRIRPRPPRLPRPRPRPLLSPRP it was 0.0345; in that of RRIRKRPPRLPRPRPRPKHQPRP, 0.132; in that of RRIRYRPPRLPRPRPRPWMPPRP, -0.417. To RRIRRRPPRLPRPRPRPQREPRP belongs 0.153; to RRIRGRPPRLPRPRPRPTQAPRP, 1.37. In the case of RRIRYRPPRLPRPRPRPQEQPRP, the “shrunken log2 fold change” value was -0.0134. With RRIRFRPPRLPRPRPRPKYYPRP, the “shrunken log2 fold change” value is -0.386. In the case of RRIRTRPPRLPRPRPRPEKEPRP it was 0.0172. To RRIRARPPRLPRPRPRPMHIPRP belongs -0.132; to RRIRTRPPRLPRPRPRPSNKPRP, -0.916; to RRIRYRPPRLPRPRPRPHKTPRP, -0.0572. With RRIRNRPPRLPRPRPRPNCSPRP, the “shrunken log2 fold change” value worked out at 7.72e-05. To RRIRWRPPRLPRPRPRPNIPPRP belongs -0.476. Turning to RRIRSRPPRLPRPRPRPACRPRP, the “shrunken log2 fold change” value stood at 0.212. To RRIRLRPPRLPRPRPRPHQIPRP belongs -0.249. In the case of RRIRHRPPRLPRPRPRPKWMPRP it was -0.123. For RRIRLRPPRLPRPRPRPDVMPRP, the “shrunken log2 fold change” value was -0.269.

Consider RRIRARPPRLPRPRPRPAGAPRP, for which the “shrunken log2 fold change” value came out at 1.16.

For the sequence RRIRMRPPRLPRPRPRPHNLPRP, the “shrunken log2 fold change” value is -0.0351. In the case of RRIRSRPPRLPRPRPRPISEPRP it was -0.0465; in that of RRIRYRPPRLPRPRPRPGIVPRP, -0.384; in that of RRIRERPPRLPRPRPRPFMFPRP, -0.531. Regarding RRIRVRPPRLPRPRPRPYTGPRP, the “shrunken log2 fold change” value was -0.0211. To RRIRQRPPRLPRPRPRPYQDPRP belongs 0.00682. To RRIRYRPPRLPRPRPRPQRFPRP belongs -0.0259; to RRIRPRPPRLPRPRPRPWTIPRP, -0.117; to RRIRKRPPRLPRPRPRPPGNPRP, 0.712. To RRIRNRPPRLPRPRPRPDQHPRP belongs -0.34; to RRIRHRPPRLPRPRPRPRWIPRP, -0.108. As for RRIRTRPPRLPRPRPRPGPGPRP, the “shrunken log2 fold change” value was determined as 0.484. In the case of RRIRIRPPRLPRPRPRPFVCPRP it was -0.797; in that of RRIRLRPPRLPRPRPRPWLMPRP, -0.102; in that of RRIRQRPPRLPRPRPRPTTRPRP, 0.215. To RRIRARPPRLPRPRPRPGSCPRP belongs 0.32; to RRIRWRPPRLPRPRPRPTFKPRP, 0.132.

RRIRVRPPRLPRPRPRPRRFPRP: the “shrunken log2 fold change” value was 0.309. Turning to RRIRVRPPRLPRPRPRPRIWPRP, the “shrunken log2 fold change” value was 0.468. In the case of RRIRCRPPRLPRPRPRPTKGPRP it was -0.0938.
